In article PMC6073801:

How the values were obtained:
[1] = target: ECD_FGFR1-Fc receptor (extracellular region of fibroblast growth factor receptor 1) (UniProt P11362)
[2] = target: ECD_FGFR1-Fc receptor (extracellular region of fibroblast growth factor receptor 1) (UniProt P11362); remark: listed apart in the source

UniProt P11362, sequence (P11362 22-376): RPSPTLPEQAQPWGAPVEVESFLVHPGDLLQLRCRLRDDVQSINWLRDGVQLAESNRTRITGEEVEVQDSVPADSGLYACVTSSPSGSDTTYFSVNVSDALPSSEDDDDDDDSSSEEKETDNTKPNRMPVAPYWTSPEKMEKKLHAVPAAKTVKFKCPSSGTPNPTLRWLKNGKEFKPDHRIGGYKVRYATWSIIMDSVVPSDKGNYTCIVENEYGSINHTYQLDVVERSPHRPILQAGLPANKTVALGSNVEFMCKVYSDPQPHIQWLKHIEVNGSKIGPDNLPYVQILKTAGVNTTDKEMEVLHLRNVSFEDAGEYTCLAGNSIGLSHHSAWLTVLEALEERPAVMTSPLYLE

Substance: FGF2 Cys78-α-amanitin/PrK96-MMAE conjugate (from UniProt P09038-2 23-155) (ligand)
- internalization of the DyLight550-labelled conjugate, intracellular fluorescence, NCI-H520 (FGFR1 positive) against HCC-15 (FGFR1 negative) cells [1]: 2 times
- internalization of the DyLight550-labelled conjugate, intracellular fluorescence, U2OS-FGFR1 against control U2OS cells [1]: 5 fold
- cytotoxicity (AlamarBlue viability), FGFR1-positive NCI-H446 cells, reduction of viability at the highest tested concentration; no toxicity for FGFR1-negative HCC-15 [2]: 95%
